# Assay results published in patent publication US20170281764A1.
# How the values were obtained:
# [1] = biological target: CD155 on K562 cells (human) (UniProt P15151); assay: flow cytometry of K562 cells stained with APC-labelled anti-CD155 (clone SKII.4 per paragraph 220); percent of cells in the marker gate from about 2x10^1 to 10^4
# [2] = biological target: human TIGIT on cells (Jurkat-TIGIT cells; human T cells, NK cells and other blood cells) (human) (UniProt Q495A1); assay: flow cytometry of human PBMCs, PE anti-TIGIT (clone MBSA43 per paragraph 220) against A488 anti-CD56; CD56+ TIGIT+ gate, unit not given; middle panel (second of 3 donors)
# Sequence of human TIGIT on cells (Jurkat-TIGIT cells; human T cells, NK cells and other blood cells) (human) (Q495A1 22-244): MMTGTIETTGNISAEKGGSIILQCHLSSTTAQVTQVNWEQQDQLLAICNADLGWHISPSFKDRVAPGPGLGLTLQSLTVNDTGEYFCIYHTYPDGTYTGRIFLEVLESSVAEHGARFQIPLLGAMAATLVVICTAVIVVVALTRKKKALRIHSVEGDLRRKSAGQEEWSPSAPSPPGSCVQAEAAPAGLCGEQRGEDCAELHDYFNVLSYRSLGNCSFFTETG
# [3] = biological target: human TIGIT on cells (Jurkat-TIGIT cells; human T cells, NK cells and other blood cells) (human) (UniProt Q495A1); assay: flow cytometry of human PBMCs, PE anti-TIGIT (clone MBSA43 per paragraph 220) against A488 anti-CD56; CD56+ TIGIT+ gate, unit not given; left panel (first of 3 donors)
# [4] = biological target: human TIGIT on cells (Jurkat-TIGIT cells; human T cells, NK cells and other blood cells) (human) (UniProt Q495A1); assay: flow cytometry of human PBMCs, PE anti-TIGIT (clone MBSA43 per paragraph 220) against A488 anti-CD56; CD56+ TIGIT+ gate, unit not given; right panel (third of 3 donors)
% CD155 [1],TIGIT+ NK Cells [2],TIGIT+ NK Cells [3],TIGIT+ NK Cells [4],Substance
98.5%,–,–,–,CD155 - APC (antibody)
–,8.03,4.84,5.47,anti-human TIGIT antibody clone MBSA43 (commercial; eBiosciences / BioLegend)
